Experimental data: publication PMC7021315

Key:
[1] = target: recombinant Zika virus E protein (soluble E, lacking the stem-anchor region) (Zika virus); assay: rate zonal ultracentrifugation in sucrose gradients; 3-5 ug E protein on sucrose gradients, 20 h at 38,000 rpm, 15°C, Beckman SW40 rotor; fractions quantified by ELISA (Strep-Tactin capture, mab A1 detection)
[2] = target: recombinant Zika virus E protein (soluble E, lacking the stem-anchor region) (Zika virus); assay: SEC; Superdex 200 Increase 3.2/300 column, ÄKTA FPLC, TAN buffer pH 8.0

Question: With “recombinant Zika virus E protein (soluble E, lacking the stem-anchor region) (domain or fragment)” as the substance, how does the stoichiometry N [1] read?
Answer: 2

Question: And the stoichiometry N [2]?
Answer: 2
